The values below come from the supplement of paper PMC10567573.

Sequences and labels used below:
B1: MFF (parent)
chain: MAEISRIQYEMEYTEGISQRMRVP
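Note: lentivirally expressed fusions sorted by FACS into six bins by GFP to DsRed ratio, PSI derived from sequencing read proportions per bin multiplied by bin number.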

The variants in this data set derive from B1. In words: protein stability index of a GFP-peptide fusion (GPS, HEK-293T) (PSI 1-6); higher = more stable. The settings on record: c terminus: a fixed tail appended.
As to MAEISRIAYEMEYTEGISQRMRVP, the protein stability index amounted to 2.31.
Under MAEISRIDYEMEYTEGISQRMRVP stands 2.85; under MAEISRISYEMEYTEGISQRMRVP, 2.71.
Under MAEISRICYEMEYTEGISQRMRVP stands 1.9; under MAEISRINYEMEYTEGISQRMRVP, 2.85.
Under MAEISRIHYEMEYTEGISQRMRVP stands 2.47; under MAEISRIIYEMEYTEGISQRMRVP, 2.52; under MAEISRIPYEMEYTEGISQRMRVP, 3.03.
Turning to MAEISRIVYEMEYTEGISQRMRVP, the protein stability index came out at 1.45.
Under MAEISRIRYEMEYTEGISQRMRVP stands 2.21.
As to MAEISRIKYEMEYTEGISQRMRVP, the protein stability index was 2.13.
Under MAEISRIYYEMEYTEGISQRMRVP stands 1.75.
Under MAEISRIWYEMEYTEGISQRMRVP stands 1.49; under MAEISRIEYEMEYTEGISQRMRVP, 3.02.
MAEISRIFYEMEYTEGISQRMRVP: the protein stability index is 1.58.
Under MAEISRITYEMEYTEGISQRMRVP stands 2.38; under MAEISRIMYEMEYTEGISQRMRVP, 1.94.
Under MAEISRIGYEMEYTEGISQRMRVP stands 2.9; under MAEISRILYEMEYTEGISQRMRVP, 1.6.
Take MAEISRCQYEMEYTEGISQRMRVP: the protein stability index came to 2.56.
Under MAEISRLQYEMEYTEGISQRMRVP stands 2.29; under MAEISRDQYEMEYTEGISQRMRVP, 3.8.
Under MAEISRTQYEMEYTEGISQRMRVP stands 3.4.
For MAEISRWQYEMEYTEGISQRMRVP, the protein stability index worked out at 2.02.
As for MAEISRVQYEMEYTEGISQRMRVP, the protein stability index was determined as 2.64.
Under MAEISRHQYEMEYTEGISQRMRVP stands 3; under MAEISRPQYEMEYTEGISQRMRVP, 3.37.
For the variant MAEISRAQYEMEYTEGISQRMRVP, the protein stability index was 3.22.
Under MAEISRMQYEMEYTEGISQRMRVP stands 2.93; under MAEISRNQYEMEYTEGISQRMRVP, 3.6.
MAEISRRQYEMEYTEGISQRMRVP: the protein stability index worked out at 3.33.
Under MAEISRFQYEMEYTEGISQRMRVP stands 2.69.
Under MAEISRYQYEMEYTEGISQRMRVP stands 2.58.
Under MAEISRGQYEMEYTEGISQRMRVP stands 3.03.
On to MAEISRSQYEMEYTEGISQRMRVP, for which the protein stability index was determined as 3.51.
Take MAEISRKQYEMEYTEGISQRMRVP: the protein stability index was determined as 3.34.
Under MAEISRQQYEMEYTEGISQRMRVP stands 3.43; under MAEISREQYEMEYTEGISQRMRVP, 4.11; under MAEISRIQYEGEYTEGISQRMRVP, 3.28.
Under MAEISRIQYEQEYTEGISQRMRVP stands 3.35.
Under MAEISRIQYEREYTEGISQRMRVP stands 3.19; under MAEISRIQYECEYTEGISQRMRVP, 3.04; under MAEISRIQYEDEYTEGISQRMRVP, 3.61.
Consider MAEISRIQYEFEYTEGISQRMRVP, for which the protein stability index worked out at 2.35.
Under MAEISRIQYETEYTEGISQRMRVP stands 3.15; under MAEISRIQYEWEYTEGISQRMRVP, 1.99; under MAEISRIQYEHEYTEGISQRMRVP, 3.38.
Under MAEISRIQYEKEYTEGISQRMRVP stands 3.27; under MAEISRIQYEVEYTEGISQRMRVP, 2.89; under MAEISRIQYEIEYTEGISQRMRVP, 2.16.
Under MAEISRIQYESEYTEGISQRMRVP stands 3.19.
For the variant MAEISRIQYELEYTEGISQRMRVP, the protein stability index was 2.37.
Under MAEISRIQYEEEYTEGISQRMRVP stands 4.06; under MAEISRIQYEPEYTEGISQRMRVP, 3.2; under MAEISRIQYEAEYTEGISQRMRVP, 3.68.
MAEISRIQYENEYTEGISQRMRVP: the protein stability index was 3.78.
Under MAEISRIQYRMEYTEGISQRMRVP stands 2.05.
Under MAEISRIQYGMEYTEGISQRMRVP stands 2.67; under MAEISRIQYSMEYTEGISQRMRVP, 2.74; under MAEISRIQYVMEYTEGISQRMRVP, 1.89.
MAEISRIQYWMEYTEGISQRMRVP: the protein stability index was 2.72.
Under MAEISRIQYDMEYTEGISQRMRVP stands 2.74; under MAEISRIQYCMEYTEGISQRMRVP, 1.99; under MAEISRIQYQMEYTEGISQRMRVP, 2.76.
Under MAEISRIQYYMEYTEGISQRMRVP stands 2.09; under MAEISRIQYFMEYTEGISQRMRVP, 1.96.
Under MAEISRIQYLMEYTEGISQRMRVP stands 1.66.
Take MAEISRIQYIMEYTEGISQRMRVP: the protein stability index stood at 1.6.
Under MAEISRIQYMMEYTEGISQRMRVP stands 2.08; under MAEISRIQYTMEYTEGISQRMRVP, 1.99.
Under MAEISRIQYNMEYTEGISQRMRVP stands 2.55; under MAEISRIQYPMEYTEGISQRMRVP, 3.04; under MAEISRIQYAMEYTEGISQRMRVP, 2.15.
Under MAEISRIQYKMEYTEGISQRMRVP stands 2.66; under MAEISRIQYHMEYTEGISQRMRVP, 2.42.
For MAEISRIQGEMEYTEGISQRMRVP, the protein stability index came to 3.6.
On to MAEISRIQMEMEYTEGISQRMRVP, for which the protein stability index was 2.42.
Under MAEISRIQPEMEYTEGISQRMRVP stands 3.57.
For the variant MAEISRIQWEMEYTEGISQRMRVP, the protein stability index was 2.28.
Under MAEISRIQCEMEYTEGISQRMRVP stands 2.78; under MAEISRIQVEMEYTEGISQRMRVP, 2.15; under MAEISRIQEEMEYTEGISQRMRVP, 3.6.
Under MAEISRIQHEMEYTEGISQRMRVP stands 3.09.
For MAEISRIQAEMEYTEGISQRMRVP, the protein stability index was found to be 3.31.
Under MAEISRIQREMEYTEGISQRMRVP stands 2.88.
Turning to MAEISRIQQEMEYTEGISQRMRVP, the protein stability index amounted to 3.35.
Under MAEISRIQTEMEYTEGISQRMRVP stands 3.22; under MAEISRIQDEMEYTEGISQRMRVP, 3.85; under MAEISRIQLEMEYTEGISQRMRVP, 2.28.
Take MAEISRIQFEMEYTEGISQRMRVP: the protein stability index is 2.11.
Under MAEISRIQNEMEYTEGISQRMRVP stands 3.07; under MAEISRIQKEMEYTEGISQRMRVP, 2.95; under MAEISRIQIEMEYTEGISQRMRVP, 1.71.
Under MAEISRIQSEMEYTEGISQRMRVP stands 3.42.
